Source: article PMC9225624 (Autophagy, 2021)
Where two headings read alike, the source gives them in different places.

T1: Arabidopsis ATG8f (tag-free) (Arabidopsis thaliana, UniProt Q8VYK7 1-117)
T1 sequence: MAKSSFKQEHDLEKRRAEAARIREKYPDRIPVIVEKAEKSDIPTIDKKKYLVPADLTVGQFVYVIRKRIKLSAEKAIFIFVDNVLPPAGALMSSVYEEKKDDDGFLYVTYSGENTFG

T2: GST-ATG8f (Arabidopsis thaliana, UniProt Q8VYK7 1-117)
T2 sequence (looked up): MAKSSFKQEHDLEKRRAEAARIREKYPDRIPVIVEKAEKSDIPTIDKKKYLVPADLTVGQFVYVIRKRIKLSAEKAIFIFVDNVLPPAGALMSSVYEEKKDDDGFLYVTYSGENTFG

T3: GST-ATG8f (Y26E R29E) (Arabidopsis thaliana, UniProt Q8VYK7 1-117, Y26E | R29E)
T3 sequence (looked up): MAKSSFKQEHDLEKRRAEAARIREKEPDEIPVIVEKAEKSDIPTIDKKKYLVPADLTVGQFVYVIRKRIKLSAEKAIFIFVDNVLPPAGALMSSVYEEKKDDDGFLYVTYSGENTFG

T4: GST-ATG8a (Arabidopsis thaliana, UniProt Q8LEM4 1-117)
T4 sequence (looked up): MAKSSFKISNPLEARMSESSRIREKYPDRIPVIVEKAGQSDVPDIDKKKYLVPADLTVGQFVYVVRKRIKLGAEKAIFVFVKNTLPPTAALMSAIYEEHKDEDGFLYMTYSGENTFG

T5: GST-ATG8b (Arabidopsis thaliana, UniProt Q9XEB5 1-117)
T5 sequence (looked up): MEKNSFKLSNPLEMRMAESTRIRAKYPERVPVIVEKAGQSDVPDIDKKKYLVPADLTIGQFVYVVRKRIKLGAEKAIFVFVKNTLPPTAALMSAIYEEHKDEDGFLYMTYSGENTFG

T6: GST-ATG8c (Arabidopsis thaliana, UniProt Q8S927 1-119)
T6 sequence (looked up): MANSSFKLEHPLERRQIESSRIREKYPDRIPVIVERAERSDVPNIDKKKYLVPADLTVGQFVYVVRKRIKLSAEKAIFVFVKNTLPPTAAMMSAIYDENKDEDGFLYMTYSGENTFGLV

T7: GST-ATG8d (Arabidopsis thaliana, UniProt Q9SL04 1-120)
T7 sequence (looked up): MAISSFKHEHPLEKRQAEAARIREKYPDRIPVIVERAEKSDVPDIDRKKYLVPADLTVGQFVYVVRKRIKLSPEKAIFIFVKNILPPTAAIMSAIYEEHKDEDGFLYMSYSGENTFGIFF

T8: GST-ATG8e (Arabidopsis thaliana, UniProt Q8S926 1-118)
T8 sequence (looked up): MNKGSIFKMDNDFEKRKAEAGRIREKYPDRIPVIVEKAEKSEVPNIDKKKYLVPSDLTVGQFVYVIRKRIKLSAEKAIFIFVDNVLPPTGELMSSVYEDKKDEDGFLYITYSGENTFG

T9: GST-ATG8g (Arabidopsis thaliana, UniProt Q9LZZ9 1-117)
T9 sequence (looked up): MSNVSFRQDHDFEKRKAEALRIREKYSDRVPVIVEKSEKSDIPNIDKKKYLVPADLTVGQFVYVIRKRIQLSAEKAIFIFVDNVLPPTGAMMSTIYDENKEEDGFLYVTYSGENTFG

T10: GST-ATG8h (Arabidopsis thaliana, UniProt Q8S925 1-119)
T10 sequence (looked up): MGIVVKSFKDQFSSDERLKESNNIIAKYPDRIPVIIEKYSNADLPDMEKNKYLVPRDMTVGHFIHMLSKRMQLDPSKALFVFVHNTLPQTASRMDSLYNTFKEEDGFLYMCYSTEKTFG

T11: GST-ATG8i (Arabidopsis thaliana, UniProt Q9LRP7 1-115)
T11 sequence (looked up): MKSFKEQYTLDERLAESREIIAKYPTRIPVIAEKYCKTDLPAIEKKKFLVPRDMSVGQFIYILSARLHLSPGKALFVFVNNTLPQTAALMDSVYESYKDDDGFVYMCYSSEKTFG

T12: GST-ATG8f Y26E (Arabidopsis thaliana, UniProt Q8VYK7 1-117, Y26E)
T12 sequence (looked up): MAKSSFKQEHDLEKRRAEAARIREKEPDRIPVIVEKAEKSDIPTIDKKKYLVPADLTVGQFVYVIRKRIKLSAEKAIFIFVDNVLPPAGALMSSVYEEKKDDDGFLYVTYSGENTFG

T13: GST-ATG8f R29E (Arabidopsis thaliana, UniProt Q8VYK7 1-117, R29E)
T13 sequence (looked up): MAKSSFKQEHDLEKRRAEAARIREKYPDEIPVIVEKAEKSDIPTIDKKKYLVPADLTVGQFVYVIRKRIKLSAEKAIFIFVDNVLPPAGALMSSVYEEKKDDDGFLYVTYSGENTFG

T14: GST-ATG8f K47E (Arabidopsis thaliana, UniProt Q8VYK7 1-117, K47E)
T14 sequence (looked up): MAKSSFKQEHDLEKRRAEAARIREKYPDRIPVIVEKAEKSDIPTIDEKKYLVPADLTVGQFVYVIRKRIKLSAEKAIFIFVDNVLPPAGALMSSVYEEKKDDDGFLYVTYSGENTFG


Legend:
[1] = target: T1, Arabidopsis ATG8f (tag-free); test: pull-down
[2] = target: T2, GST-ATG8f; test: pull-down
[3] = target: T1, Arabidopsis ATG8f (tag-free); test: SEC
[4] = target: T3, GST-ATG8f (Y26E R29E); test: pull-down
[5] = target: T2, GST-ATG8f; test: pull-down; remark: listed apart in the source
[6] = target: T4, GST-ATG8a; test: pull-down
[7] = target: T5, GST-ATG8b; test: pull-down
[8] = target: T6, GST-ATG8c; test: pull-down
[9] = target: T7, GST-ATG8d; test: pull-down
[10] = target: T8, GST-ATG8e; test: pull-down
[11] = target: T9, GST-ATG8g; test: pull-down
[12] = target: T10, GST-ATG8h; test: pull-down
[13] = target: T11, GST-ATG8i; test: pull-down
[14] = target: T12, GST-ATG8f Y26E; test: pull-down
[15] = target: T13, GST-ATG8f R29E; test: pull-down
[16] = target: T14, GST-ATG8f K47E; test: pull-down

Row | binding result [1] | binding result [2] | binding result [3] | binding result [4] | binding result [5] | binding result [6] | binding result [7] | binding result [8] | binding result [9] | binding result [10] | binding result [11] | binding result [12] | binding result [13] | binding result [14] | binding result [15] | binding result [16] | Binder
1 | binds |  |  |  |  |  |  |  |  |  |  |  |  |  |  |  | GVSEWDPILEE [NBR1 AIM peptide (657-667 aa)]
2 |  | binds | binds |  |  |  |  |  |  |  |  |  |  |  |  |  | UBA domain (619-704 aa) of NBR1 (domain or fragment, Arabidopsis thaliana, UniProt Q9SB64 619-704, looked up) EITMLKELEEMGFKEIDLNKEILRDNEYNLEQSVDALCGVSEWDPILEELQEMGFCDDVTNKRLLKKNNGSIKGVVMDLLTGEKEA
3 |  |  | binds | binds | binds | binds | binds | binds | binds | binds | binds | binds | binds | binds | binds | binds | SH3 domain of SH3P2, SH3P2 (279-368) (domain or fragment, Arabidopsis thaliana, UniProt Q8VWF1 279-368, looked up) SYEEANGVFASQMHDTSTDSMGYFLGEVLFPYHGVTDVELSLSTGEYVVVRKVTGSGWAEGECKGKAGWFPYGYIERRERVLASKVSEVF
